Measured values taken from patent publication US20180016322A1 (INSERM INSTITUT NATIONAL DE LA SANTE ET DE LA RECHERCHE …, published 2018).

Biological target: synthetic MBP-HIS-EBOV-GP fusion peptide (Zaire Ebolavirus (EBOV), UniProt P0AEX9 27-392 = MBP)
Assay: ELISA on coated recombinant fusion protein

B1: murine monoclonal antibody 3327 (antibody, V domains shown)
VH: EVQLQESGPSLGKPSQTLSLTCSVTGDSITSGYWNWIRKFPGSKLEYMGYITSSGSTYYNPSLKSRISITRDTSKNQYYLQLNSVTSEDTATYYCAREGARSSGGWYFDVWGAGTTVTVSS
VL: DIVMTQSHKFMSTSVGDRVSITCKASQDVSSAVVWYQQKPGQSPKLLIYWASTRHTGVPDRFTGSGSGTDYTLTISSVQAEDLALYYCQQHYSTPTFGGGTKLEIKR
binding result: no binding
